Data reported in patent US20240325555A1 (LANOVA MEDICINES, published 2024).
Where a chain is given by its changes, count along the chain named.

T1: human LIV-1 (human, UniProt Q13433 29-755)
T1 sequence (looked up): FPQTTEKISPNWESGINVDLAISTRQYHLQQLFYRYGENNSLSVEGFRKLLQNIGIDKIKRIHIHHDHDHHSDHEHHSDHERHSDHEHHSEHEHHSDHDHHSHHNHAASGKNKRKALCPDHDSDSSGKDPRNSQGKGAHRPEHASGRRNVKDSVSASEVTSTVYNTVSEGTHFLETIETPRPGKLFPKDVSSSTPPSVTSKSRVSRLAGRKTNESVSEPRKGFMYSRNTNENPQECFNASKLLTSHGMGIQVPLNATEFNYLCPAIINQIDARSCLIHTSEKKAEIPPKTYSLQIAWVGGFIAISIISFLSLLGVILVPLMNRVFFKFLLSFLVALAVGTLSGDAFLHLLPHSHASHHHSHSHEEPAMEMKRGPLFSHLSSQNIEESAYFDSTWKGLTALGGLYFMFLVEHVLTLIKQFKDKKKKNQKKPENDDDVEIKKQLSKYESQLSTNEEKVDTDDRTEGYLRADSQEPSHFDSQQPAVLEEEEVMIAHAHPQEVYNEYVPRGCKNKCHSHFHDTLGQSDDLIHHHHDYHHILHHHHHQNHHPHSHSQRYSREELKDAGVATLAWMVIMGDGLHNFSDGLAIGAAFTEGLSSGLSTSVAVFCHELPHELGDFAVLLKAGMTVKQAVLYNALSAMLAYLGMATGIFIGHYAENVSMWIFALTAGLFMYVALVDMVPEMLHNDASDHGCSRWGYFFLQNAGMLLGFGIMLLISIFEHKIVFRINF

B1: 56B3E6 (antibody, V domains shown)
VH: EVQLQQSGAELVRSGASVKLSCTASGFNIKDYYIHWVKQRPEQGLEWIGWIDPENDDTEYAPKFQGKATMTADTSSNTAYLHLSSLTSEDTAVYYCPHGGGFRVFDSWGQGTTLTVSS
VL: DVLMTQTPLSLPVSLGDQASISCRSSQDIVHSNGNTYLEWYLQKPGQSPKLLIYKVSNRFSGVPDRFSGSGSGTDFTLKISRVEAEDLGVYYCFQGSHVPWTFGGGTKLEIK
notes: Tested as chimeric antibody
B2: 72B12F1 (antibody, V domains shown)
VH: EVQLQQSGAELVKPGASVKLSCTASGFNIKDTYMHWVKQRPEQGLEWIGRIDPANGNTKNDPRFQGKATITADTSSNTAYLQLSRLTSEDTAVYYCAGGGITTVVPDHWGQGTTLTVSS
VL: B1 VL with L3V, D28S, I29L, E39Q, Y92F, F94S, G96S, S97T, W101Y
notes: Tested as chimeric antibody
B3: 69B3D6 (antibody, V domains shown)
VH: QVQLQQSGPELVKPGASVRISCKASGYTFTSYHMHWVKQRPGQGLEWIGWIYPGNVKNQSNEKFKGKATLTADKSSSTAYMQLSSLTSEDSAVYFCARSDITRAFFAYWGQGTLVTVSA
VL: B1 VL with D28S, W101Y
notes: Tested as chimeric antibody
B4: 50H12B3 (antibody, V domains shown)
VH: QVQLKQSGPGLVQPSQSLSITCTVSGFSLTSYGVHWVRQSPGKGLEWLGVIWTGGTTDYNAAFKSRLSISKDNSKSQVFFKMNSLQANDTAIYYCARGPSSYWGQGTLVTVSA
VL: DIVMTQSQKFMSTSVGDRVSVTCKASQNVDTNVVWYQQKPGQSPKALIHSTSYRYSGVPDRFTGSGSGTDFTLTISNVQSEDLAEYFCQQYNNYPWTFGGGTKLEIK
notes: Tested as chimeric antibody
B5: 5D6B10.Z6 (antibody, V domains shown)
VH: QVQLVESGGGVVQPGRSLRLSCTVSGFSLTTYGIHWVRQSPGKGLEWLGVIWTGGTTDYNAAFISRLTISKDNSKSTLYFQMNSLRAEDTAVYYCARGPSSYWGQGTLVTVSS
VL: DIVMTQSPATLSVSPGERVTVSCKASQNVDTNVVWYQQKPGQSPRALIHSASYRYSGVPDRFSGSGSGTDFTLTISSVQSEDFAVYFCQQYNNYPWTFGGGTKLEIK
B6: 5D6B10.Z10 (antibody, V domains shown)
VH: QVQLQESGPGLVKPSGTLSLTCAVSGFSLTTYGIHWVRQSPGKGLEWLGVIWTGGTTDYNAAFISRLTISKDKSKNQVSLKLSSVTAADTAVYYCARGPSSYWGQGTLVTVSS
VL: B5 VL with D1E, V19A, V21L, H49Y, D60A, D70E, V78L, G100Q, L104V
B7: 5D6B10.Z12 (antibody, V domains shown)
VH: B6 VH
VL: B5 VL
B8: 5D6B10.Z8 (antibody, V domains shown)
VH: B5 VH with E6Q, L78V, R86Q, V92I
VL: B5 VL with D1E, V19A, V78L, G100Q, L104V
B9: 5D6B10.Z9 (antibody, V domains shown)
VH: B5 VH with E6Q, L78V, R86Q, V92I
VL: B5 VL
B10: 5D6B10.Z13 (antibody, V domains shown)
VH: B6 VH with E6Q, A23T, S79F, L80F, L82M, V85L
VL: B5 VL with D1E, V19A, V21L, H49Y, D60A, D70E, V78L, G100Q, L104V
B11: 5D6B10.Z11 (antibody, V domains shown)
VH: B6 VH
VL: B5 VL with D1E, V19A, V78L, G100Q, L104V
B12: 290F10G10.p1.Z5 (antibody, V domains shown)
VH: EVQLVQSGAEVKKPGASVKVSCKASGYTFTSYWIHWVRQAPGQGLEWMGTIYPGDADTRSTQKFKDRVTVTADKSTSTVYMELSSLRSEDTAVYYCARSLIHDDYDKYYFDYWGQGTTVTVSS
VL: DIQMTQSPSSLSASVGDRVTITCKARQDINKYIAWYQQKPGKAPKLLIHYTSILQPGIPSRFSGSGSGRDYTFTISSLQPEDIATYYCLQYDYFFTFGGGTKVEIK
B13: 290F10G10.p1.Z3 (antibody, V domains shown)
VH: B12 VH with V70M, K74T
VL: B12 VL with Q38H, A43G
B14: 290F10G10.p1.Z1 (antibody, V domains shown)
VH: B12 VH with V70M, K74T
VL: B12 VL with H49Y, I58V
B15: 124H4D11.p2.z2 (antibody, V domains shown)
VH: QVQLVQSGAEVVKPGASVKVSCKASGFNIKDYYMHWVRQAPGQGLEWIGWIDPENDDTEYDPKFQGRVTMTADTSTSTVYMELSSLRSEDTAVYYCAARYYAFDYWGQGTMVTVSS
VL: DVLMTQSPSSLSASVGDRVTITCRSSQSIVHSNANTYLEWYLQKPGKSPKLLIYKVSNRFSGVPDRFSGSGSGTEFTLTISSVQPEDFAVYYCFQGSQVPPTFGQGTRLEIK
B16: 124H4D11.p2.z13 (antibody, V domains shown)
VH: B15 VH with Q3P, V20L, R38K, V68A, V79A, M81L, A97N, M111T
VL: B15 VL with A13V, V19A, T22S, A89G, Q105G
B17: 124H4D11.p2.z12 (antibody, V domains shown)
VH: B15 VH with Q3P, V20L, R38K, V68A, V79A, M81L, A97N, M111T
VL: B15 VL
B18: 124H4D11.p2.z7 (antibody, V domains shown)
VH: B15 VH with Q3P, V68A, V79A, A97N, M111T
VL: B15 VL
B19: 124H4D11.p2.z1 (antibody, V domains shown)
VH: B15 VH
VL: B15 VL with L3Q, E75D, V83L, V90T
B20: 124H4D11.p2.z3 (antibody, V domains shown)
VH: B15 VH
VL: B15 VL with A13V, V19A, T22S, A89G, Q105G

Experiments:
[1] = target: T2, cynomolgus LIV-1 (cynomolgus, UniProt A0A2K5WH46 30-741); assay: FACS, HEK293/Cyno_LIV-1 cells
Method: (§1) In this example, cell based binding of chimeric Abs on human and cyno LIV-1 over-expressing HEK 293 cells were assessed using flow cytometry.
(§2) Briefly, cells were incubated with chimeric Abs (from 100 nM, 5 folds dilution, 8 points). After incubation at 4° C. for 60 minutes, the cells were washed with 2% FBS/PBS buffer twice, then stained with fluorescent conjugated secondary antibody at 4° C. for 30 minutes. After that the cells were washed twice and resuspended in 80 μL of 2% FBS/PBS buffer. Fluorescent signal of binding was detected using Agilent. The EC50 was calculated using the GraphPad Software (LaJolla, CA).

[2] = target: T1, human LIV-1; assay: cell-based or functional assay
[3] = target: T1, human LIV-1; assay: cell-based or functional assay; remark: listed apart in the source
[4] = target: T1, human LIV-1; assay: FACS, HEK293/H_LIV-1 cells
Method: as §1, §2

[5] = target: T2, cynomolgus LIV-1; assay: FACS, HEK293/Cyno_LIV-1 cells; remark: listed apart in the source
[6] = target: T1, human LIV-1; assay: FACS, HEK293/H_LIV-1 cells; remark: listed apart in the source
Method: (§3) In this example, cell based binding of humanized antibodies (hu Abs) on human LIV-1-expressing cells were assessed using flow cytometry.
(§4) Cell based binding of hu-Abs on human LIV-1 expressing cells were assessed using flow cytometry. Briefly, the HEK293/H_LIV-1 cells were incubated with hu-Abs (from 100 nM, 6 folds dilution, 8 points). After incubation at 4° C. for 60 minutes, the cells were washed with FACS buffer twice, then stained with fluorescent conjugated secondary antibody at 4° C. for 30 minutes. After that the cells were washed twice and analyzed by flow cytometry.

[7] = target: T1, human LIV-1; assay: FACS, human LIV-1 cells
Method: as §3, §4

[8] = target: T2, cynomolgus LIV-1; assay: FACS, cyno LIV-1 cells
Target sequence in this assay (A0A2K5WH46 entry or part of it): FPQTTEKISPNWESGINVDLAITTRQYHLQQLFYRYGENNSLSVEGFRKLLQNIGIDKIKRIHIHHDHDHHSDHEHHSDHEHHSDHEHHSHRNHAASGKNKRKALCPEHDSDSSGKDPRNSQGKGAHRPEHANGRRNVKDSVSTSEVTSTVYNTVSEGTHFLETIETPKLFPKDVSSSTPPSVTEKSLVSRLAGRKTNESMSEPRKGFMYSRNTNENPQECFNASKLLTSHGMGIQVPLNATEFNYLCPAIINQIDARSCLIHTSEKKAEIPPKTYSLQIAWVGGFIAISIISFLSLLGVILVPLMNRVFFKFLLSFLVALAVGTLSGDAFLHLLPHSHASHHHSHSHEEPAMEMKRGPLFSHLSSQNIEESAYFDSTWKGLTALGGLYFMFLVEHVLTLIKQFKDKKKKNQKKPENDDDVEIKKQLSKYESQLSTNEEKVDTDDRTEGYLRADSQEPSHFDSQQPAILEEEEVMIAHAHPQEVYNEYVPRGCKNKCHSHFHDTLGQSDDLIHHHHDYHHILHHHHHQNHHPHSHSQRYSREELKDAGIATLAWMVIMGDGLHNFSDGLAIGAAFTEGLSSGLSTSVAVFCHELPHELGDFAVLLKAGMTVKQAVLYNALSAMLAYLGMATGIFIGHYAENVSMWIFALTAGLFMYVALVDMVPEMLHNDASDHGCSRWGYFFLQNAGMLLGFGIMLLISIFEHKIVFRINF

| EC50 [5] | Top (MFI) [5] | EC50 [6] | Top (MFI) [6] | also measured | Binder |
| --- | --- | --- | --- | --- | --- |
| – | – | – | – | EC50 [1]: 210 pM; Top (MFI) [1]: 9280 MFI; Internalization EC50 [2]: 5000 pM; Internalization Top (RFU) [2]: 388000 RFU; ADCC reporter EC50 [3]: 1300 pM; ADCC reporter Top (RFU) [3]: 52300 RFU; EC50 [4]: 130 pM; Top (MFI) [4]: 13300 MFI | B1 |
| – | – | – | – | EC50 [1]: 360 pM; Top (MFI) [1]: 7470 MFI; Internalization EC50 [2]: 7200 pM; Internalization Top (RFU) [2]: 353000 RFU; EC50 [4]: 790 pM; Top (MFI) [4]: 10700 MFI | B2 |
| – | – | – | – | EC50 [1]: 170 pM; Top (MFI) [1]: 6600 MFI; ADCC reporter EC50 [3]: 25300 pM; ADCC reporter Top (RFU) [3]: 47200 RFU; EC50 [4]: 180 pM; Top (MFI) [4]: 11500 MFI | B3 |
| – | – | – | – | EC50 [1]: 210 pM; Top (MFI) [1]: 35900 MFI; ADCC reporter EC50 [3]: 200 pM; ADCC reporter Top (RFU) [3]: 95600 RFU; EC50 [4]: 230 pM; Top (MFI) [4]: 63000 MFI | B4 |
| 160 pM | 16700 MFI | 240 pM | 52700 MFI | – | B5 |
| 470 pM | 25800 MFI | 420 pM | 63800 MFI | – | B6 |
| 460 pM | 24900 MFI | 300 pM | 60300 MFI | – | B7 |
| 4000 pM | 12100 MFI | 190 pM | 45700 MFI | – | B8 |
| 230 pM | 16500 MFI | 240 pM | 52600 MFI | – | B9 |
| 500 pM | 26300 MFI | 330 pM | 64300 MFI | – | B10 |
| 11600 pM | 18300 MFI | 290 pM | 55300 MFI | – | B11 |
| – | – | – | – | EC50 [7]: 320 pM; Top (MFI) [7]: 7390 MFI; EC50 [8]: 500 pM; Top (MFI) [8]: 7370 MFI | B12 |
| – | – | – | – | EC50 [7]: 270 pM; Top (MFI) [7]: 7600 MFI; EC50 [8]: 400 pM; Top (MFI) [8]: 6750 MFI | B13 |
| – | – | – | – | EC50 [7]: 560 pM; Top (MFI) [7]: 7540 MFI; EC50 [8]: 850 pM; Top (MFI) [8]: 7190 MFI | B14 |
| 200 pM | 8390 MFI | – | 19400 MFI | – | B15 |
| – | 9030 MFI | 7480 pM | 17000 MFI | – | B16 |
| 3800 pM | 7570 MFI | – | 15800 MFI | – | B17 |
| 1480 pM | 7750 MFI | 37200 pM | 15800 MFI | – | B18 |
| 290 pM | 8200 MFI | 890 pM | 16800 MFI | – | B19 |
| 40 pM | 8300 MFI | 120 pM | 19400 MFI | – | B20 |
